In patent US20110294738A1, “PTHR1 RECEPTOR COMPOUNDS” (priority 2008, published 2011):
Like-named read-outs stand apart in the source and are kept apart here. Peptide text beside a SMILES is read from it. * marks the point of attachment. Palmitoyl = CCCCCCCCCCCCCCCC(=O)*

Legend:
[1] = target: T1, PTHR1 (Rattus norvegicus, UniProt P25961)
T1 sequence (P25961 27-591): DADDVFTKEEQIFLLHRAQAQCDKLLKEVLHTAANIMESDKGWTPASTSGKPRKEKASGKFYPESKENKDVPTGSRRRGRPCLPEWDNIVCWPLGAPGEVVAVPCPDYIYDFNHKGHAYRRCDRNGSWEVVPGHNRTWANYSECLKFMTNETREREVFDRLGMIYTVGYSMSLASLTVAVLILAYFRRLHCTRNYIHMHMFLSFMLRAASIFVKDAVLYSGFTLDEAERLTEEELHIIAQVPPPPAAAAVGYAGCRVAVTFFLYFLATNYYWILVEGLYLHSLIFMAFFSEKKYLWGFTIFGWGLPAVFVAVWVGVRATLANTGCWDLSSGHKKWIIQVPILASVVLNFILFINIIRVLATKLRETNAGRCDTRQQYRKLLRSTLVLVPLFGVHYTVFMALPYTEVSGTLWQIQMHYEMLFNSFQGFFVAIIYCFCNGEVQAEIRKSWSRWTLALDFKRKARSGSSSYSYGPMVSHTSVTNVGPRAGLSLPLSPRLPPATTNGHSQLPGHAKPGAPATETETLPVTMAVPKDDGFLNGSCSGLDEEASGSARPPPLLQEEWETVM
Protocol: (§1) cAMP Screening Assay Using DiscoveRX XS+ Kit
(§2) UMR-106 cells were seeded in 96-well white plates at 10K cells/well in growth media. Twenty four hours after seeding, cell media was removed by gentle dumping and replaced with 30 μL of compounds diluted to 10 μM final concentration in assay buffer (Hank's balanced Salt Solution, 20 mM HEPES, pH 7.4, 0.1 μM IBMX). After 30 minute incubation at room temperature, 10 μL human PTH1-34 serial diluted in assay buffer was added. Cells were incubated at 37° C. for 15 minutes before 10 μL of water soluble analog of forskolin, NKH477 was added to final concentration of 10 μM followed by 60 minute incubation at room temperature. DiscoveRX cAMP XS+ kit reagents were then added following manufacture protocol. Briefly, 10 μL of antibody was added to each well followed by 40 μL of ED/Lysis buffer mix (1/5/19 for Galacon-star/Emerald/Lysis buffer and then 1:1 with ED). After 1 hour incubation, 40 μL of EA reagent was added followed by at least 1 hour incubation before the plates were read on TopCount reader. Data was analyzed using GraphPad Prism. PTH1-34 dose-response curves were fitted using non-linear curve fit (Y=Bottom+(Top−Bottom)/(1+10̂((Log EC50−X)*HillSlope))). PTH1-34 EC50 values calculated in the presence of compounds were compared to that in the presence of vehicle control. The ratio of the EC50 values were calculated and presented as fold shift (EC50 compound/EC50 vehicle). The effect of compounds on PTH1-34 stimulated maximal response was also assessed and was presented percent inhibition (1−(Emax compound/Emax vehicle)).

[2] = target: T1, PTHR1; test: cAMP screening assay using DiscoveRX XS+ kit (PTH1-34 dose-response in UMR-106 cells); conditions: compound 10 μM; for Inhibition of Maximal Response: PTH1-34 stimulated maximal response, 1−(Emax compound/Emax vehicle); for Fold Shift of EC50: PTH1-34 EC50 compound/EC50 vehicle
Protocol: as §1, §2

| Molecule | Fold Shift of EC50 [1] | Inhibition of Maximal Response [2] [%] | Fold Shift of EC50 [2] |
| --- | --- | --- | --- |
| RSDTRQQYRKLLKS [Compound 66] | 16.4 | −39.00 | – |
| RETNAGRSDTRQ [Compound 63] | 1.1 | 1.20 | – |
| GSEKKYLWGFT [Compound 42] | 1.3 | 40.80 | – |
| TNAGRSDARQQYRKLL [Compound 79] | – | 1.20 | 7.2 |
| RRLHSTRNYIH [Compound 2] | – | −24.90 | 1.9 |
| TNAGRSDTRQQYRF [Compound 70] | 2 | 15.10 | – |
| HSLIFMAFFSEKKYL [Compound 33] | 1.1 | 27.50 | – |
| LAYFRRLHSTR [Compound 4] | 0.9 | −74.20 | – |
| RRLHSTRNYIHMH [Compound 1] | 1.3 | 5.50 | – |
| RRLHSTRNYIHM [Compound 15] | 1.7 | 1.50 | – |
| Pal-TNAGRSATRQQYRKLL-amide (Palmitoyl-TNAGRSATRQQYRKLL-NH2; SMILES CCCCCCCCCCCCCCCC(=O)N[C@H](C(=O)N[C@@H](CC(N)=O)C(=O)N[C@@H](C)C(=O)NCC(=O)N[C@@H](CCCNC(=N)N)C(=O)N[C@@H](CO)C(=O)N[C@@H](C)C(=O)N[C@H](C(=O)N[C@@H](CCCNC(=N)N)C(=O)N[C@@H](CCC(N)=O)C(=O)N[C@@H](CCC(N)=O)C(=O)N[C@@H](Cc1ccc(O)cc1)C(=O)N[C@@H](CCCNC(=N)N)C(=O)N[C@@H](CCCCN)C(=O)N[C@@H](CC(C)C)C(=O)N[C@@H](CC(C)C)C(N)=O)[C@@H](C)O)[C@@H](C)O) [Compound 82] | – | −21.60 | 23.4 |
| EIKKSWSRWTLALDFKRKAR [Compound 96] | 1.1 | 7.00 | – |
| YFRRLHSTRNYIH [Compound 6] | 1 | 10.80 | – |
| DTRQQYRKLLKSTL [Compound 56] | 1.9 | −30.40 | – |
| VRVLATKLRETNAGRSDTR [Compound 45] | 1.4 | 9.10 | – |
| NGEVQAEIKKSWSRWTLA [Compound 98] | 1 | 0.50 | – |

| Molecule | Fold Shift of EC50 [1] | Inhibition of Maximal Response [2] [%] | Fold Shift of EC50 [2] |
| --- | --- | --- | --- |
| AGRSDTRQQYRKLLFA [Compound 94] | 18.7 | −24.40 | – |
| GSYFRRLHSTRNYIH [Compound 11] | – | 19.80 | 1.1 |
| TNAGRSDTRQQARKLL [Compound 92] | – | 8.30 | 5 |
| LAYFRRLHSTRNY [Compound 3] | – | −51.40 | 0.7 |
| TNAGRSDTRQQYRKLL [Compound 68] | 12.36 | – | – |
| TNAGRSDTRQAYRKLL [Compound 93] | – | −67.00 | 13.4 |
| TNAGRSDTRQQYRALL [Compound 90] | – | 21.00 | 2 |
| TNAARSDTRQQYRKLL [Compound 80] | – | 0.80 | 2.3 |
| TNAGASDTRQQYRKLL [Compound 76] | – | 2.40 | 16.9 |
| CCCCCCCCCCCCCCCC(=O)N[C@@H](Cc1c[nH]c2ccccc12)C(=O)N[C@H](C(=O)N[C@@H](CC(C)C)C(=O)N[C@@H](C)C(=O)N[C@@H](CC(C)C)C(=O)N[C@@H](CC(=O)O)C(=O)NC(Cc1ccccc1)C(=O)N[C@@H](CCCCN)C(=O)N[C@@H](CCCNC(=N)N)C(=O)N[C@@H](CCCCN)C(=O)N[C@@H](C)C(=O)N[C@@H](CCCNC(=N)N)C(N)=O)[C@@H](C)O (stereo partly shown) [Compound 103] | 1.2 | – | – |
| AGRSDTRQQYRKLLFS [Compound 95] | – | −5.70 | 19 |
| TNAGRSDTRQQYAKLL [Compound 91] | – | 9.80 | 2 |
| CCCCCCCCCCCCCCCC(=O)N[C@@H](CC(N)=O)C(=O)NCC(=O)N[C@@H](CCC(=O)O)C(=O)N[C@H](C(=O)N[C@@H](CCC(N)=O)C(=O)N[C@@H](C)C(=O)N[C@@H](CCC(=O)O)C(=O)N[C@H](C(=O)N[C@@H](CCCCN)C(=O)N[C@@H](CCCCN)C(=O)N[C@@H](CO)C(=O)N[C@@H](Cc1c[nH]c2ccccc12)C(N)=O)[C@@H](C)CC)C(C)C [Compound 99] (Palmitoyl-NGEVQAEIKKSW-NH2) | 1 | – | – |
| TNAGRSDTRQQYRKLLFS [Compound 85] | – | 19.50 | 6.9 |
| RETNAGRSDTRQQYRKLLFS [Compound 58] | 17.74 | – | – |
